From patent publication US20240325564A1, “PHARMACEUTICAL COMPOSITION CONTAINING ANTI-TROP2 ANTIBODY DRUG CONJUGATE AND ITS APPLICATION” (JIANGSU HENGRUI PHARMACEUTICALS CO., LTD., priority 2021, published 2024)

T1: TROP-2 expressed on cells (UniProt P09758 27-323, limits assumed)
T1 sequence (looked up): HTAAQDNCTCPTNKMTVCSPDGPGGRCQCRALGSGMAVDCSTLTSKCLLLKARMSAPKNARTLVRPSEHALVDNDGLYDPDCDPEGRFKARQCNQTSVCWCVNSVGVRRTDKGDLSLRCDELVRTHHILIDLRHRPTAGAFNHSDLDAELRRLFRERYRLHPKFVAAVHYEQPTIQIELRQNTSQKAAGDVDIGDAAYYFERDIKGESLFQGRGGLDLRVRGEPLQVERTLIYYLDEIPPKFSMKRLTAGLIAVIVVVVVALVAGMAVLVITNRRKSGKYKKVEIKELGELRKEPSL

B1: PD3 anti-TROP2 antibody (antibody, human IgG1, kappa, V domains shown)
VH: EVQLVQSGSELKKPGASVKVSCKASGYTFTNYGMNWVKQAPGQGLKWMGWINTYTGEPTYTQDFKGRFAFSLDTSVSTAYLQISSLKAEDTAVYYCARGGFGSSYWYFDVWGQGTLVTVSS
VL: DIQLTQSPSSLSASVGDRVSITCKASQDVSIAVAWYQQKPGKAPKLLIYSASYRYTGVPDRFSGSGSGTDFTLTISSLQPEDFAVYYCQQHYITPLTFGAGTKVEIKR
B2: ADC-5 (PD3-58) (antibody, human IgG1, kappa, V domains shown)
VH: EVQLVQSGSELKKPGASVKVSCKASGYTFTNYGMNWVKQAPGQGLKWMGWINTYTGEPTYTQDFKGRFAFSLDTSVSTAYLQISSLKAEDTAVYYCARGGFGSSYWYFDVWGQGTLVTVSS
VL: DIQLTQSPSSLSASVGDRVSITCKASQDVSIAVAWYQQKPGKAPKLLIYSASYRYTGVPDRFSGSGSGTDFTLTISSLQPEDFAVYYCQQHYITPLTFGAGTKVEIKR
modifications: compound 58 (linker-drug) conjugated after TCEP reduction of the antibody; average n=3.88 per antibody (UV-Vis); sites not stated
B3: ADC-4 (TINA-58) (antibody, human IgG1, kappa, V domains shown)
VH: QVQLVQSGAEVKKPGASVKVSCKASGYTFTTAGMQWVRQAPGQGLEWMGWINTHSGVPKYAEDFKGRVTISADTSTSTAYLQLSSLKSEDTAVYYCARSGFGSSYWYFDVWGQGTLVTVSS
VL: DIQMTQSPSSLSASVGDRVTITCKASQDVSTAVAWYQQKPGKAPKLLIYSASYRYTGVPSRFSGSGSGTDFTLTISSLQPEDFAVYYCQQHYITPLTFGQGTKLEIKR
modifications: compound 58 (linker-drug) conjugated after TCEP reduction of the antibody; average n=3.99 per antibody (UV-Vis); sites not stated
B4: ADC-7 (hRS7-9-A) (antibody, human IgG1, kappa, V domains shown)
VH: QVQLQQSGSELKKPGASVKVSCKASGYTFTNYGMNWVKQAPGQGLKWMGWINTYTGEPTYTDDFKGRFAFSLDTSVSTAYLQISSLKADDTAVYFCARGGFGSSYWYFDVWGQGSLVTVSS
VL: DIQLTQSPSSLSASVGDRVSITCKASQDVSIAVAWYQQKPGKAPKLLIYSASYRYTGVPDRFSGSGSGTDFTLTISSLQPEDFAVYYCQQHYITPLTFGAGTKVEIKR
modifications: compound 9-A (linker-drug) conjugated after TCEP reduction of the antibody; average n=3.72 per antibody (UV-Vis); sites not stated
B5: TINA antibody (constructed according to WO2015098099A1) (antibody, human IgG1, kappa, V domains shown)
VH: QVQLVQSGAEVKKPGASVKVSCKASGYTFTTAGMQWVRQAPGQGLEWMGWINTHSGVPKYAEDFKGRVTISADTSTSTAYLQLSSLKSEDTAVYYCARSGFGSSYWYFDVWGQGTLVTVSS
VL: DIQMTQSPSSLSASVGDRVTITCKASQDVSTAVAWYQQKPGKAPKLLIYSASYRYTGVPSRFSGSGSGTDFTLTISSLQPEDFAVYYCQQHYITPLTFGQGTKLEIKR
B6: hRS7 (control anti-TROP-2 antibody, constructed according to WO03074566) (antibody, human IgG1, kappa, V domains shown)
VH: QVQLQQSGSELKKPGASVKVSCKASGYTFTNYGMNWVKQAPGQGLKWMGWINTYTGEPTYTDDFKGRFAFSLDTSVSTAYLQISSLKADDTAVYFCARGGFGSSYWYFDVWGQGSLVTVSS
VL: DIQLTQSPSSLSASVGDRVSITCKASQDVSIAVAWYQQKPGKAPKLLIYSASYRYTGVPDRFSGSGSGTDFTLTISSLQPEDFAVYYCQQHYITPLTFGAGTKVEIKR

Columns and labels:
Assay in all cases: cell-based or functional assay
[1] = target: T1, TROP-2 expressed on cells
[2] = target: T1, TROP-2 expressed on cells; remark: listed apart in the source
[3] = target: T1, TROP-2 expressed on cells; remark: listed apart in the source

Binder | EC50, antibody endocytic activity (DT3C cell killing, CTG) [1] | Emax, antibody endocytic activity (DT3C cell killing, CTG) [1] | EC50, killing activity on Colo205(++) cells [3] | EC50, killing activity on DMS53(++) cells [3] | EC50, killing activity on FaDu(+++) cells [3] | EC50, killing activity on HCC827(+++) cells [3] | Emax, killing activity on Colo205(++) cells [3] | Emax, killing activity on DMS53(++) cells [3] | Emax, killing activity on FaDu(+++) cells [3] | Emax, killing activity on HCC827(+++) cells [3] | Emax, killing activity on SK-OV-3(+) cells [3] | further results
B1 | 0.15 nM | 99.1% |  |  |  |  |  |  |  |  |  | 
B2 |  |  |  |  |  |  |  |  |  |  |  | EC50, killing activity on Colo205 cells (second parallel assay) [2]: 25.6 nM; EC50, killing activity on DMS53 cells (second parallel assay) [2]: 25.7 nM; EC50, killing activity on FaDu cells (second parallel assay) [2]: 0.14 nM; EC50, killing activity on HCC827 cells (second parallel assay) [2]: 0.13 nM
B3 |  |  | 59.8 nM | 75.6 nM | 0.53 nM | 0.27 nM | 99.7% | 89.8% | 101% | 88.2% | 49.1% | 
B4 |  |  | 52.8 nM | 72.9 nM | 0.31 nM | 0.18 nM | 99.5% | 88.7% | 101% | 89.3% | 66.1% | 
B5 | 0.18 nM | 98.7% |  |  |  |  |  |  |  |  |  | 
B6 | 0.18 nM | 98.5% |  |  |  |  |  |  |  |  |  | 
